Test results published in article PMC4335062, “Data-Driven Prediction and Design of bZIP Coiled-Coil Interactions” (PLoS Computational Biology, 2015).
Where no end group is shown, it is not given here.

Key:
[1] = target: ATF5-d1 labeled at the C-terminus; assay: FRET or BRET; direct-binding FRET of the designed peptide with itself (row 'homodimer'; dimer to monomers); acceptor-labelled design titrated into donor-labelled design by note 1 of the tables; 4 °C
[2] = target: CREBZF (human) (UniProt Q9NS37); assay: FRET or BRET; direct-binding FRET in 384-well plates; rhodamine-labelled design (acceptor) titrated 0 to 1 uM into 10 nM fluorescein-labelled bZIP (donor); 150 mM KCl, 50 mM potassium phosphate pH 7.4, 0.1% Tween-20, 0.1% BSA; 23 °C
[3] = target: T1, JUN (Homo sapiens, UniProt P05412); assay: as above
[4] = target: BATF3 (human) (UniProt Q9NR55); assay: FRET or BRET; direct-binding FRET in 384-well plates; rhodamine-labelled design (acceptor) titrated 0 to 1 uM into 10 nM fluorescein-labelled bZIP (donor); 150 mM KCl, 50 mM potassium phosphate pH 7.4, 0.1% Tween-20, 0.1% BSA; 37 °C
[5] = target: T2, FOS (Homo sapiens, UniProt P01100); assay: as above
[6] = target: T1, JUN; assay: as above
[7] = target: T3, ATF6B (Homo sapiens, UniProt Q99941); assay: FRET or BRET; direct-binding FRET in 384-well plates; rhodamine-labelled design (acceptor) titrated 0 to 1 uM into 10 nM fluorescein-labelled bZIP (donor); 150 mM KCl, 50 mM potassium phosphate pH 7.4, 0.1% Tween-20, 0.1% BSA; 23 °C
[8] = target: T2, FOS; assay: as above
[9] = target: MAF (Homo sapiens, UniProt O75444); assay: as above
[10] = target: MAFB (Homo sapiens, UniProt Q9Y5Q3); assay: as above
[11] = target: MAFG (Homo sapiens, UniProt O15525); assay: as above
[12] = target: NFE2L3 (human) (UniProt Q9Y4A8); assay: as above
[13] = target: NFIL3 (human) (UniProt Q16649); assay: as above
[14] = target: T3, ATF6B; assay: FRET or BRET; direct-binding FRET in 384-well plates; rhodamine-labelled design (acceptor) titrated 0 to 1 uM into 10 nM fluorescein-labelled bZIP (donor); 150 mM KCl, 50 mM potassium phosphate pH 7.4, 0.1% Tween-20, 0.1% BSA; 37 °C
[15] = target: Activating Transcription Factor (ATF) 3 (human) (UniProt P18847); assay: as above
[16] = target: CREB1 (human) (UniProt P16220); assay: as above
[17] = target: MAFF (human) (UniProt Q9ULX9); assay: as above
[18] = target: NFE2L3 (human) (UniProt Q9Y4A8); assay: as above

T2 sequence (P01100 whole entry): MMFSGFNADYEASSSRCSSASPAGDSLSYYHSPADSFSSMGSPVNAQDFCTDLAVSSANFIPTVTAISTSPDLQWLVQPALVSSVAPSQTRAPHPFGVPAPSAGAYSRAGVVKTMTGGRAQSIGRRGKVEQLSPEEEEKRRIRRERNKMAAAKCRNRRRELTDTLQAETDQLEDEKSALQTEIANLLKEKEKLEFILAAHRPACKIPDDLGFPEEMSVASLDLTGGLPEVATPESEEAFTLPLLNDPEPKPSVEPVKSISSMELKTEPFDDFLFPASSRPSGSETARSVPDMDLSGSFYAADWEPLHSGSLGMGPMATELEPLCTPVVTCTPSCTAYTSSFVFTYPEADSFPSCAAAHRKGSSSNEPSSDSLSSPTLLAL
Chain of NFE2L3 (human) (Q9Y4A8 whole entry): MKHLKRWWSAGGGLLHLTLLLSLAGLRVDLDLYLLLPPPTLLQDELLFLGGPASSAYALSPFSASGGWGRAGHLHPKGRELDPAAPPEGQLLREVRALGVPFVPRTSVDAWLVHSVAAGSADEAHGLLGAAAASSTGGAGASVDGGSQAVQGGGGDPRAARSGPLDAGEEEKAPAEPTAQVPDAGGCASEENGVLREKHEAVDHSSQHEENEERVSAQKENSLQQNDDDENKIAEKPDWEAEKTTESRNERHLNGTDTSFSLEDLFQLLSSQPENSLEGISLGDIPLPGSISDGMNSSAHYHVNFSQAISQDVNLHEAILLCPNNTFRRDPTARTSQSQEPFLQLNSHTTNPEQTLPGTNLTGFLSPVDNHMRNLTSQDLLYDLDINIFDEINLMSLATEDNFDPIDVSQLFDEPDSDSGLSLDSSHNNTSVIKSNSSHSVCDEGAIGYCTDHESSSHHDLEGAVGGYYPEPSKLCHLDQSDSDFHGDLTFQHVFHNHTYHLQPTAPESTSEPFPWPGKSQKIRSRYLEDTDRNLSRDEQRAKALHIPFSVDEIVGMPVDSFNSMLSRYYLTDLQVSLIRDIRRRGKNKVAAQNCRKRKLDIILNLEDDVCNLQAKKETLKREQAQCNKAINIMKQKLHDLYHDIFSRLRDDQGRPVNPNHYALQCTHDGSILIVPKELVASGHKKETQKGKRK
T1 sequence (P05412 whole entry): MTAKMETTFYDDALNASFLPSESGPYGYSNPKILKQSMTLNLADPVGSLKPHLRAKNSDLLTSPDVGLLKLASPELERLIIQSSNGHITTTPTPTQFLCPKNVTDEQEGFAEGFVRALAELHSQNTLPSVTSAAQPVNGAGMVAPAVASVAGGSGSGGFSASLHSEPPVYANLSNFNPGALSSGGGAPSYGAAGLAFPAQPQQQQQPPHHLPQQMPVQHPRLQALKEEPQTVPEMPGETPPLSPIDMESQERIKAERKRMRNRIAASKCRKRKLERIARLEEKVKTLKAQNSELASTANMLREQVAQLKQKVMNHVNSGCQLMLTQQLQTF
T3 sequence (Q99941 whole entry): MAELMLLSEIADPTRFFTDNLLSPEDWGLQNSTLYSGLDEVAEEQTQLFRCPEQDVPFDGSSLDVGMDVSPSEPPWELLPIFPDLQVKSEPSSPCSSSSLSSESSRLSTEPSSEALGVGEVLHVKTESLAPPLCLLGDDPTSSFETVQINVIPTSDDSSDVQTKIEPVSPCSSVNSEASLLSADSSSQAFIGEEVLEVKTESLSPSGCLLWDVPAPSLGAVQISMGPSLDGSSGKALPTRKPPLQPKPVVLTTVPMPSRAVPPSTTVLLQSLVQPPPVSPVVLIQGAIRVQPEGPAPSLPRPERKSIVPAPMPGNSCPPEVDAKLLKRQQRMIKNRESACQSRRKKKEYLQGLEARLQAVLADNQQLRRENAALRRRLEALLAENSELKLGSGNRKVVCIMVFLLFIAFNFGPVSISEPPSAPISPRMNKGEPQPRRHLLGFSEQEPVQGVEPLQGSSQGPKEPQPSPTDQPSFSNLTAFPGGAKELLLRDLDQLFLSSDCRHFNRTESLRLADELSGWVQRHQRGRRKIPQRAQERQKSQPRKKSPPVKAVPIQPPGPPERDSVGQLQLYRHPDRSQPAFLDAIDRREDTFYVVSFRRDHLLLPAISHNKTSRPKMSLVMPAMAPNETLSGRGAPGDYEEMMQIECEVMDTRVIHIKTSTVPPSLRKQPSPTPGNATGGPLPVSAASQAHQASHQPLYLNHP
Chain of NFIL3 (human) (Q16649 whole entry): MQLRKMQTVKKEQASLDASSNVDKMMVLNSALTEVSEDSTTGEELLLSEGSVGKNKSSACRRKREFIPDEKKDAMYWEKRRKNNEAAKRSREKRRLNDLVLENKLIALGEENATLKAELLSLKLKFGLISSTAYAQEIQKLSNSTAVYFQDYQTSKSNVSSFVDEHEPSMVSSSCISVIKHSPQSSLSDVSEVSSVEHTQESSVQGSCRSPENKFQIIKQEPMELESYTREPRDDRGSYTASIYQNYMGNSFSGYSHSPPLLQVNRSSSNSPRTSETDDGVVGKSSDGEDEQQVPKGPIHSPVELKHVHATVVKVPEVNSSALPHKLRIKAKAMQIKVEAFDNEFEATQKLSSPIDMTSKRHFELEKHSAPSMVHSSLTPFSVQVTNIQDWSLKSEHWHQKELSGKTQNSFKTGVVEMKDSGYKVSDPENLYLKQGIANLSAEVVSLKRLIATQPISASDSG
Chain of MAFF (human) (Q9ULX9 whole entry): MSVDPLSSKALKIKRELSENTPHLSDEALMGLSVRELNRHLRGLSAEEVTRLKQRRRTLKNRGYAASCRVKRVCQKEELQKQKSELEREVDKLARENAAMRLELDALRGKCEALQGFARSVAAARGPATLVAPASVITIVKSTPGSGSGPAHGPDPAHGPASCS
Chain of BATF3 (human) (Q9NR55 whole entry): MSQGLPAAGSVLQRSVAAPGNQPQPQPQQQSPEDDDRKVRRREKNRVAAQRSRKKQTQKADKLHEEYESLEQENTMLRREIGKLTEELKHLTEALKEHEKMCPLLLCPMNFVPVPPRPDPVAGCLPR
Chain of Activating Transcription Factor (ATF) 3 (human) (P18847 whole entry): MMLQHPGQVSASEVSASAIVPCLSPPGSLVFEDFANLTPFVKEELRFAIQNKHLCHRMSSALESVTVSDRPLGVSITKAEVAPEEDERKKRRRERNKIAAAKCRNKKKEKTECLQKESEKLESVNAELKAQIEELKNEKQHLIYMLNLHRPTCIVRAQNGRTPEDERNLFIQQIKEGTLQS
Chain of MAFB (Q9Y5Q3 whole entry): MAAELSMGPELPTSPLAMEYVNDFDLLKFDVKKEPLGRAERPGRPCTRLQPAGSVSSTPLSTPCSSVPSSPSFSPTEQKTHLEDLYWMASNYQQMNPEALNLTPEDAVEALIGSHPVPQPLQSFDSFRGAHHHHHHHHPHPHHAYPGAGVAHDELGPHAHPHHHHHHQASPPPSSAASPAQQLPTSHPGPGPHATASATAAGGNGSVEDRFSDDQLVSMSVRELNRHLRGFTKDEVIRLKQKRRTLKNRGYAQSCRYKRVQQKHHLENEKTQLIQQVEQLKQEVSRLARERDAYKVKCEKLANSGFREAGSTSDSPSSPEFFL
Chain of CREB1 (human) (P16220 whole entry): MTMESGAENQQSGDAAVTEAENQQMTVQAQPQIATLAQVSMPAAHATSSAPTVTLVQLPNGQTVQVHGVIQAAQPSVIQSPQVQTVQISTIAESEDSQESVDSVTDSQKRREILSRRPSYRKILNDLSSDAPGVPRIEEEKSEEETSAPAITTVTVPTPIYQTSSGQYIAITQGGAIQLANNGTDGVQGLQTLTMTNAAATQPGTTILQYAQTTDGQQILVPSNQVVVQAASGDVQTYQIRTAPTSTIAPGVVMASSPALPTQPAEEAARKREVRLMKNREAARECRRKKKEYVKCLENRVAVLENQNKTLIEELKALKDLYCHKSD
Chain of MAF (O75444 whole entry): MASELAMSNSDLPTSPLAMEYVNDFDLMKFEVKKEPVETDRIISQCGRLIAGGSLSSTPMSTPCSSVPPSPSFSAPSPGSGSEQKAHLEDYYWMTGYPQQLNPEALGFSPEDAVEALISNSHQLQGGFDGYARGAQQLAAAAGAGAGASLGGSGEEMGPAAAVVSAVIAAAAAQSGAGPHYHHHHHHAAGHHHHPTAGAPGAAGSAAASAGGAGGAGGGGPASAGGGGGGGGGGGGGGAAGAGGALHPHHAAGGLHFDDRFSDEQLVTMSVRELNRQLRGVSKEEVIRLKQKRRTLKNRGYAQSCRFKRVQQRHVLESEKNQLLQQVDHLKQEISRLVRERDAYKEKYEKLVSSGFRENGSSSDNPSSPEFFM
Chain of CREBZF (human) (Q9NS37 whole entry): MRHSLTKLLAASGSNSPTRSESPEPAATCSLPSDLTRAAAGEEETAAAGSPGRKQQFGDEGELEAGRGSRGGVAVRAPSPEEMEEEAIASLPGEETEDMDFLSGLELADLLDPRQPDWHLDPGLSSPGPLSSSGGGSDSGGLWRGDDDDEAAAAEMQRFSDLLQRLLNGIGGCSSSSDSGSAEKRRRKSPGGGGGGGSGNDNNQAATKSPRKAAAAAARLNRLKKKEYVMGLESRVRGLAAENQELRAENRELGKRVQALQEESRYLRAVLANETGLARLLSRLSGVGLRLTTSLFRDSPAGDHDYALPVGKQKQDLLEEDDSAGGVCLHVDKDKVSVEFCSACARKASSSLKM
Chain of MAFG (O15525 whole entry): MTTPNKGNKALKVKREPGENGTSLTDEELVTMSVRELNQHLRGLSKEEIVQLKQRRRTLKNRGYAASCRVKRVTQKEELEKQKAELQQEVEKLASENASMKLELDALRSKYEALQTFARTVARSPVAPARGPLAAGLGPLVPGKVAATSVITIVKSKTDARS

Row | Kd [1] [nM] | Kd [2] [µM] | Kd [3] [µM] | Kd [4] [µM] | Kd [5] [µM] | Kd [6] [µM] | Kd [7] [nM] | Kd [8] [nM] | Kd [9] [µM] | Kd [10] [µM] | Kd [11] [nM] | Kd [12] [nM] | Kd [13] [µM] | Kd [14] [µM] | Kd [15] [µM] | Kd [16] [µM] | Kd [17] [nM] | Kd [18] [µM] | Binder
1 | 1000 | > 5 | > 5 | > 5 | > 5 | > 5 |  |  |  |  |  |  |  |  |  |  |  |  | ATF5-d1 labeled at the C-terminus (designed binder, not fully specified) GESKEYKKGSGSKRIAYLRQRIAELRNENHVLESRIQRMEKEKDALQQDRDHLEYELGC(Rhodamine Red C2‑maleimide)
2 |  |  |  |  |  |  | 1000 | 1000 | > 5 | > 5 | 1000 | 1000 | > 5 | > 5 | > 5 | > 5 | 327 | > 5 | ATF4-d1 labeled at the C-terminus (designed binder, also: C59 label by assay: Rhodamine Red C2-maleimide or fluorescein-5-maleimide, solubility linker after the His6 tag; added to the C-terminus for labeling; one molecule for the rhodamine- and the fluorescein-labelled form; the assay tells which label stood there; also called ATF4-d1-Rhodamine; ATF4-d1-FITC; source: E. coli RP3098, purified (Ni-NTA under denaturing conditions, reverse-phase HPLC)) GESKEYKKGSGSNQIKTLRTRLSKLRKDNLQLEKDIANLERKAKDLRAEKEQLEYELGC
